Laboratory results taken from publication PMC5910394, “Mechanically interlocked functionalization of monoclonal antibodies” (Nature Communications, 2018).
Positions of bridges follow the written chain, without caps; N, C: chain ends. Non-standard residues stand in square brackets, D forms with d. Groups on a side chain read outwards from the residue. No end group written: not given here. *: point of attachment. Dip = N[C@H](C(=O)O)C(c1ccccc1)c1ccccc1; azide = [N-]=[N+]=N*

B1: 5-diphenylalanine-8-Arg-(PEG)2-azidomeditope (peptide)
peptide: Ac-CQFD[Dip]STR([(PEG)2-azide])RLRCGGSK
modifications: disulfide 1-12 (inferred); also: arginine-(PEG)2-azide at position 8 by name (footnote: 9th place)

How the values were obtained:
[1] = target: memAb anti-HER2 (meditope-enabled, trastuzumab-based anti-HER2 antibody); test: SPR; memAb anti-HER2 amine-coupled on a CM5 chip, meditope flowed over at 30 uL/min, HBS-EP+, 25 °C, 1:1 model, global fit, n=1 (authors estimate the error at 10-50%)
[2] = target: Ile83Glu memAb anti-HER2 IgG; test: SPR; Ile83Glu memAb anti-HER2 amine-coupled on a CM5 chip, meditope flowed over at 30 uL/min, HBS-EP+, 25 °C, 1:1 model, global fit, n=1 (authors estimate the error at 10-50%)
[3] = target: memAb anti-HER2 (meditope-enabled, trastuzumab-based anti-HER2 antibody); test: SPR; memAb anti-HER2 amine-coupled on a CM5 chip, meditope flowed over at 30 uL/min, HBS-EP+, 37 °C, 1:1 model, global fit, n=1 (authors estimate the error at 10-50%)
[4] = target: Ile83Glu memAb anti-HER2 IgG; test: SPR; Ile83Glu memAb anti-HER2 amine-coupled on a CM5 chip, meditope flowed over at 30 uL/min, HBS-EP+, 37 °C, 1:1 model, global fit, n=4, standard deviation
[5] = target: Ile83Glu memAb anti-HER2 IgG; test: SPR; Ile83Glu memAb anti-HER2 IgG immobilized on the sensor chip, 37 °C, n=1, analyte as a two-fold dilution series from 500 pM to 39 pM, 1:1 interaction model
[6] = target: Ile83Glu anti-HER2 memAb; test: SPR; memAb variant amine-coupled to a CM5 chip, peptide flowed over, HBS-EP+; temperature not told for this result (25 °C or 37 °C)
[7] = target: anti-HER2 memAb (trastuzumab-based, meditope-enabled anti-HER2 antibody); test: SPR; memAb variant amine-coupled to a CM5 chip, peptide flowed over at 30 uL/min, HBS-EP+, 25 °C, Biacore T100, 1:1 binding model
[8] = target: anti-HER2 memAb (trastuzumab-based, meditope-enabled anti-HER2 antibody); test: SPR; memAb variant amine-coupled to a CM5 chip, peptide flowed over at 30 uL/min, HBS-EP+, 37 °C, Biacore T100, 1:1 binding model
[9] = target: Ile83Glu anti-HER2 memAb; test: SPR; memAb variant amine-coupled to a CM5 chip, peptide flowed over at 30 uL/min, HBS-EP+, 25 °C, Biacore T100, 1:1 binding model
[10] = target: Ile83Glu anti-HER2 memAb; test: SPR; memAb variant amine-coupled to a CM5 chip, peptide flowed over at 30 uL/min, HBS-EP+, 37 °C, Biacore T100, 1:1 binding model

Ile83Glu anti-HER2 memAb, sequence (heavy, as listed by the source, chain 1 of 2): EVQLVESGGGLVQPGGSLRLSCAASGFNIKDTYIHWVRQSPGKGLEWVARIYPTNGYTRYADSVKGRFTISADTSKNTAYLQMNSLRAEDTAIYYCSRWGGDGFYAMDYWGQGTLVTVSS
Ile83Glu anti-HER2 memAb, sequence (light, as listed by the source, chain 2 of 2): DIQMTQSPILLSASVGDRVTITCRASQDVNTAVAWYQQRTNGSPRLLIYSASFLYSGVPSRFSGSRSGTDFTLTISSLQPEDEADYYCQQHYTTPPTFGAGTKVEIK
Ile83Glu memAb anti-HER2 IgG, sequence (heavy, as listed by the source, chain 1 of 2): as the sequence (heavy, as listed by the source, chain 1 of 2) above
memAb anti-HER2 (meditope-enabled, trastuzumab-based anti-HER2 antibody), sequence (heavy, as listed by the source, chain 1 of 2): as above
memAb anti-HER2 (meditope-enabled, trastuzumab-based anti-HER2 antibody), sequence (light, as listed by the source, chain 2 of 2): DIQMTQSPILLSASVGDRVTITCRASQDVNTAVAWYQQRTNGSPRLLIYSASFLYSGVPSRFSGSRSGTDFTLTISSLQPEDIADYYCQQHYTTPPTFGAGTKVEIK
anti-HER2 memAb (trastuzumab-based, meditope-enabled anti-HER2 antibody), sequence (heavy, as listed by the source, chain 1 of 2): as the sequence (heavy, as listed by the source, chain 1 of 2) above

| Binder | koff [1] | kon [1] | koff [2] | kon [2] | koff [3] | kon [3] | Kd [4] | koff [4] | kon [4] | other results |
| --- | --- | --- | --- | --- | --- | --- | --- | --- | --- | --- |
| CQFDLSTRRLKC (disulfide 1-12) [original meditope …] | 0.016 s⁻¹ | 13000 M⁻¹ s⁻¹ | 0.00059 s⁻¹ | 26000 M⁻¹ s⁻¹ | 0.044 s⁻¹ | 44000 M⁻¹ s⁻¹ | 20 nM | 0.0025 s⁻¹ | 260000 M⁻¹ s⁻¹ | – |
| Ac-CQFDLSTRRLRCGGSK (disulfide 1-12 (inferred)) [long meditope (Ac)…] | 0.006 s⁻¹ | 28000 M⁻¹ s⁻¹ | 0.00031 s⁻¹ | 710000 M⁻¹ s⁻¹ | 0.026 s⁻¹ | 75000 M⁻¹ s⁻¹ | 4 nM | 0.00063 s⁻¹ | 160000 M⁻¹ s⁻¹ | Kd [1]: 210 nM; Kd [2]: 0.44 nM; Kd [3]: 350 nM |
| B1 | – | – | – | – | – | – | – | – | – | koff [5]: 0.00014 s⁻¹; kon [5]: 66000 M⁻¹ s⁻¹ |
| CQFDLSTRRLKC (disulfide 1-12 (inferred)) [original meditope (…)] | – | – | – | – | – | – | – | – | – | Kd [6]: 23 nM; Kd [7]: 1200 nM; Kd [8]: 1000 nM; half-life [8]: 0.267 min |
| Ac-CQFD[Dip]STRRLRCGGSK (disulfide 1-12 (inferred)) [5-diphenylalanine long meditope ((Ac)CQFDA(Ph)2…)] | – | – | – | – | – | – | – | – | – | Kd [9]: < 0.026 nM; koff [9]: < 1e-05 s⁻¹; Kd [10]: 0.4 nM; half-life [10]: 40 min |
